In the supplement of paper PMC9732359:
± gives the uncertainty stated by the source.

Assay: protein stability index of a GFP-peptide fusion (yeast GPS) (PSI 1-4); higher = more stable; sorted into four equal gates, so the index is relative within each strain
Method in brief: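 Tiled 17-residue peptides from yeast proteins were fused downstream of GFP on a plasmid that also expresses Cherry, and the pooled library was carried in yeast. Mid-log cultures grown in leucine-free medium were sorted into four equal gates by GFP/Cherry fluorescence ratio. Plasmids from each gate were PCR-amplified and Illumina-sequenced, and reads were assigned to strains by barcodes. Each peptide's protein stability index is the sum, over gates, of the gate's read frequency multiplied by its gate number.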

| Sequence | protein stability index (doa10∆) | protein stability index (pdr5∆) | protein stability index (san1∆) | protein stability index (ubr1∆) |
| --- | --- | --- | --- | --- |
| FEKKELQEKFLNQIATL [IRR1] | 1.08 ± 0.056 | 1.23 ± 0.057 | 1.15 ± 0.1 | 1.04 ± 0.062 |
| SHDKKTKCSTVVKASEL [SRP14] | 3.02 ± 0.18 | 3.46 ± 0.22 | 3.05 ± 0.17 | 3.33 ± 0.11 |
| FGVPNSSKNETSKPVFS [YLR335W/NUP2] | 2.32 ± 0.035 | 2.97 ± 0.13 | 2.55 ± 0.13 | 3.15 ± 0.068 |
| KTADVKRQYVKQFLTKD [RPL20A] | 2.94 ± 0.087 | 2.92 ± 0.055 | 2.2 ± 0.07 | 2.6 ± 0.048 |
| LIIDGFKSYATRTVITD [SMC2] | 2.82 ± 0.11 | 3.21 ± 0.09 | 2.99 ± 0.071 | 3.12 ± 0.083 |
| VSFDFNGVPGQALDAVR [MED8] | 3.1 ± 0.077 | 3.36 ± 0.079 | 3.32 ± 0.079 | 3.36 ± 0.061 |
| GIKYHATPPLKRFKDME [SMC1] | 3.1 ± 0.1 | 3.25 ± 0.075 | 2.95 ± 0.07 | 3.25 ± 0.076 |
| FCPGEIVGKSNVLVTMP [YMR129W/POM152] | 2.69 ± 0.12 | 2.3 ± 0.1 | 1.82 ± 0.27 | 2.51 ± 0.085 |
| LNAINNAEKTGKRQVLI [RPS22A] | – | 2.3 ± 0.26 | – | – |
| VDFACCTNLTNRTLYEL [GRR1] | 2.72 ± 0.061 | 2.71 ± 0.061 | 2.26 ± 0.06 | 2.73 ± 0.044 |
| EQWLRQFEVSDDEKNDK [SNF2] | 3.41 ± 0.065 | 3.21 ± 0.059 | 3.17 ± 0.053 | 3.09 ± 0.046 |
| ISLYFNDILDELLCGMA [ECM29] | 1.64 ± 0.1 | 1.81 ± 0.069 | 2.04 ± 0.18 | 1.48 ± 0.06 |
| AEQEKAKNIISNVLDGN [LRP1] | 2.45 ± 0.051 | 2.7 ± 0.059 | 2.63 ± 0.056 | 2.98 ± 0.05 |
| SREVLRYEEFADKVKLG [RPC40] | 2.96 ± 0.08 | 3.26 ± 0.19 | 3.17 ± 0.12 | 3.21 ± 0.14 |
| NMVRNNNNNTIDESMPD [GRR1] | 2.83 ± 0.057 | 3.12 ± 0.061 | 3.02 ± 0.074 | 3.12 ± 0.052 |
| IIVKDKSNDSEGDFLKS [POP1] | 3.06 ± 0.3 | – | 3.14 ± 0.11 | – |
| VSVRKHLERNRKDKDAK [RPS13] | 3.38 ± 0.16 | 3.31 ± 0.095 | – | 3.28 ± 0.099 |
| NKVVVNLNDAGLALQLF [RPN2] | 2.28 ± 0.084 | 2.19 ± 0.12 | 2.68 ± 0.12 | 1.85 ± 0.091 |
| TSIRLEGDELENKTKKD [SRB4] | – | 3.78 ± 0.26 | – | – |
| LSISVAAEPMDSKMIQD [SNU114] | 2.73 ± 0.061 | 3.03 ± 0.081 | 2.84 ± 0.077 | 3.18 ± 0.11 |

| Sequence | protein stability index (doa10∆) | protein stability index (pdr5∆) | protein stability index (san1∆) | protein stability index (ubr1∆) |
| --- | --- | --- | --- | --- |
| LLSEHDDHNGEVWSVSW [YGL100W/SEH1] | 2.62 ± 0.068 | 2.8 ± 0.069 | 2.36 ± 0.079 | 2.66 ± 0.1 |
| TYRYVSVSVLVDRLKIG [RPS25A] | 2.28 ± 0.091 | 1.48 ± 0.08 | 1.72 ± 0.072 | 1.45 ± 0.039 |
| LNNNNNNNNTTTTTTTT [SWI1] | 3.06 ± 0.062 | 3.27 ± 0.062 | 3.33 ± 0.081 | 3.22 ± 0.054 |
| KVVKAIRIYFTEKDDNK [NUT1] | 2.31 ± 0.13 | 2.67 ± 0.07 | 2.55 ± 0.12 | 2.97 ± 0.056 |
| QDKIELSEEETLLVIRR [SNF2] | 2.38 ± 0.11 | 2.27 ± 0.11 | 2.92 ± 0.072 | 2.98 ± 0.089 |
| TKSKNKTLIGLQGIVIW [POP4] | 2.93 ± 0.05 | 2.76 ± 0.051 | 2.76 ± 0.044 | 2.73 ± 0.034 |
| LLREKQRVRNMRELGLI [YOR098C/NUP1] | 1.19 ± 0.19 | 1.14 ± 0.13 | – | 1.13 ± 0.19 |
| IRIFRSELQRLSHENNV [RPT5] | 2.67 ± 0.11 | 3.21 ± 0.088 | 2.96 ± 0.052 | 2.9 ± 0.091 |
| VSLVAEATSNTNSEDKL [MED4] | 2.84 ± 0.12 | 3.03 ± 0.078 | 2.84 ± 0.082 | 2.65 ± 0.1 |
| HSLREYINGKATALANL [RPO31] | 3.06 ± 0.086 | 3.21 ± 0.095 | 2.57 ± 0.088 | 2.99 ± 0.068 |
| ELGEKKNEKLKFQETLL [ISW2] | 2.86 ± 0.096 | 2.7 ± 0.1 | 2.85 ± 0.11 | 2.88 ± 0.12 |
| SKAQQKTAEQVAAERAA [RPL7A] | 2.84 ± 0.064 | 2.88 ± 0.052 | 2.74 ± 0.054 | 2.68 ± 0.049 |
| DSYLDADKELSFEINVK [BRR2] | 2.83 ± 0.051 | 3.03 ± 0.041 | 3.08 ± 0.032 | 2.88 ± 0.034 |
| LNSLTNLLSKRNQEKKM [SNM1] | 2.89 ± 0.078 | 2.86 ± 0.074 | 2.69 ± 0.083 | 2.7 ± 0.063 |
| DTFGEGIIITDQSNVQY [BRR2] | 3.11 ± 0.17 | 3.21 ± 0.13 | 2.79 ± 0.1 | 2.94 ± 0.093 |
| IGGLLSKVREEVGDVCI [RPO31] | 2.13 ± 0.1 | 1.86 ± 0.067 | 2.11 ± 0.11 | 2.79 ± 0.11 |
| GEIGDFFSSDWRFLQIL [POP1] | 2.73 ± 0.089 | 2.79 ± 0.09 | 2.94 ± 0.066 | 2.55 ± 0.093 |
| EQQLFEIFAFGNIKDLP [CSN9] | 2.88 ± 0.076 | 2.97 ± 0.06 | 2.96 ± 0.035 | 2.86 ± 0.035 |
| SVRGAIVGPDLAVLALV [RPS6A] | 1.18 ± 0.041 | 1.46 ± 0.06 | 1.14 ± 0.11 | 1.38 ± 0.045 |
| LAPELNQAIWKRGVKGV [RPL31A] | – | 2.04 ± 0.22 | – | 1.57 ± 0.19 |
